The labels stand for the following.
B3: His-tagged FtsZ (filamentous temperature-sensitive protein Z) (natural protein, Streptococcus suis, UniProt A0A0H3MXZ7 1-409, looked up)
chain: MAFSFEAAASHGAVIKVIGVGGGGGNAINRMIEEGVAGVEFIAANTDVQALSSSKAETVIQLGPKLTRGLGAGGQPEVGRKAAEESEEALTNVLTGADMVFITAGMGGGSGTGAAPVIARIAKNLGALTVAVVTRPFGFEGNKRGNFAIEGIEGLREQVDTLLIISNNNLLEIVDKKTPLLEALSEADNVLRQGVQGITDLITNPGLINLDFADVKTVMENKGNALMGIGIGTGEDRVIEAARKAIYSPLLETTIDGAEDVIVNVTGGYDMTLTEAEDASEIVNQAAGQGVNIWLGTSIDETMKDEIRVTVVATGVRQDTADKPARHRTEAVSPRPSHRFDHSVASAPTRGAAQQTEAPKASAFGEWDLRRENLIRPTDTEPTSTVSVEKFTMDQDEDELDTPPFFRNR
notes: FtsZ, tubulin-like cell division protein of Streptococcus suis; The His tag is named for the SPR; also called His-FtsZ; source: purified

Data set [1] has as its target B3. The experiment in a line: SPR; His-tagged FtsZ immobilized onto sensor chips as the ligand; MsmK constructs in concentration series as analytes; buffer without protein as negative control. Particulars: both partners purified.
Data set [2] deals with the molecule itself. Kind of data set: transmission electron microscopy; FtsZ (0.6 μM) incubated with 2 mM GTP and/or 1 mM ATP in buffer P, 10 min at 37°C.

Where only a bound is given, the exact number is not on record here.

B1: His-tagged MsmK (multiple sugar metabolism protein K), full length (enzyme, Streptococcus suis, UniProt A0A0H3N1P0 1-376, looked up)
chain: MVQLNLKNIYKKYPNSEHYSVEDFNLDIKDKEFIVFVGPSGCGKSTTLRMIAGLEDITEGEAYIDGVLMNDVAPKDRDIAMVFQNYALYPHMTVFDNMAFGLKLRKYSKDEIKKRVEEAAQILGLTEFLERKPADLSGGQRQRVAMGRAIVRDAKVFLMDEPLSNLDAKLRVSMRTEIAKIHRRIGATTIYVTHDQTEAMTLADRIVIMSATKNPAGTGTIGRIEQIGSPEELYNRPVNKFVASFIGSPAMNFFTVTLQDGVLVGDGFKVELPEGRRKHLEEKGYNGKSFTLGIRPEDIKASQLELDTYPSSIVEAEVVVSELLGAETMLYSKVGSTEFVSRVDARDYHNPGDKVRLTFNLNKAHFFDDETSKAIV
notes: MsmK, ATPase of the ABC-type carbohydrate transport system of Streptococcus suis; 378 amino acid residues, open reading frame of 1,137 bp; also called full-length MsmK; source: expressed and purified
Turning to B1, in data set [1], the Kd (usually a measure of binding affinity in units of concentration) is no more than 10 nM; the koff (commonly a measure of how fast the partners let go of each other) was no more than 1e-05 s⁻¹; the kon – broadly, a measure of how fast the partners come together – was found to be 1000 M⁻¹ s⁻¹.

B2: N_MsmK (amino acids 1 to 234), His-tagged (domain or fragment, Streptococcus suis, UniProt A0A0H3N1P0 1-234, looked up)
chain: MVQLNLKNIYKKYPNSEHYSVEDFNLDIKDKEFIVFVGPSGCGKSTTLRMIAGLEDITEGEAYIDGVLMNDVAPKDRDIAMVFQNYALYPHMTVFDNMAFGLKLRKYSKDEIKKRVEEAAQILGLTEFLERKPADLSGGQRQRVAMGRAIVRDAKVFLMDEPLSNLDAKLRVSMRTEIAKIHRRIGATTIYVTHDQTEAMTLADRIVIMSATKNPAGTGTIGRIEQIGSPEELY
notes: MsmK of Streptococcus suis, N-terminal domain, aa 1 to 234 of 378; also called N terminus of MsmK; N-terminal domain of MsmK; source: expressed and purified
In data set [1], B2 showed a Kd of 332 nM, a koff of 0.000332 s⁻¹ and a kon of 1000 M⁻¹ s⁻¹.

With B3, in data set [2], the binding result is given as “binds”.

These data come from PMC8546688, “Streptococcus suis MsmK: Novel Cell Division Protein Interacting with FtsZ and Maintaining Cell Shape” (mSphere, 2021).
